Test results reported in article PMC7319273.

Legend:
[1] = molecular target: SARS-CoV-2 Spike protein extracellular domain (S-ECD), as used in ELISA and BLI (SARS-CoV-2) (UniProt P0DTC2); assay: BLI
[2] = molecular target: SARS-CoV-2 Spike protein extracellular domain (S-ECD), as used in ELISA and BLI (SARS-CoV-2) (UniProt P0DTC2)

Sequence of 4A8 (human monoclonal antibody) (VH): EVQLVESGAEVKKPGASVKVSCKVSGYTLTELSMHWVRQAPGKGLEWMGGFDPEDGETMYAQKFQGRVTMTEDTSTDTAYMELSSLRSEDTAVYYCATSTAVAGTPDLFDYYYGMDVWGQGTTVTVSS
Sequence of 4A8 (human monoclonal antibody) (VL): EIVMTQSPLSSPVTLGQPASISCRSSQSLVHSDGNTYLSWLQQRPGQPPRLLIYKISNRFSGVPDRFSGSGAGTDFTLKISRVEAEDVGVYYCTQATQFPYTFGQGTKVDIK

4A8 (human monoclonal antibody) was tested, and the Kd [1] was less than 2.14 nM and the neutralization of authentic SARS-CoV-2 in Vero-E6 cells, EC50 [2] was 0.61 µg/mL.
